Consider one molecule from paper PMC6420636, “The deubiquitylating enzyme USP15 regulates homologous recombination repair and cancer cell response to PARP inhibitors” (Nature Communications, 2019).

In this experiment the target is T1, FLAG-BARD1-BRCT, deubiquitinated by His-USP15 in vitro (UniProt Q99728 568-777).
T1 construct: BARD1 C-terminal BRCT domain; also called deubiquitinated BARD1-BRCT domain
T1 sequence (looked up): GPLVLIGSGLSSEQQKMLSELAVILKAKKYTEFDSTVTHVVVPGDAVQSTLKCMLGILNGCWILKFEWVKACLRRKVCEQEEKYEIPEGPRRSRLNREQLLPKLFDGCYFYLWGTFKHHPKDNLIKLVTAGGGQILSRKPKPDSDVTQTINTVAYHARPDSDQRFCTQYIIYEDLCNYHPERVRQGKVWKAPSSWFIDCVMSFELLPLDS
Briefly: pull-down; in vitro binding assay: BARD1-BRCT purified by tandem IP and left on FLAG beads, untreated or deubiquitinated by His-USP15, incubated with GST or GST-HP1γ. The settings on record: both partners purified.

B1: GST-HP1γ (natural protein)
chain: not shown
notes: HP1γ; plasmid a gift from Naoko Tanese; source: E. coli BL21, purified (glutathione Sepharose 4B)
As for B1, the binding result is reported as “binds”.
